Article PMC12097070 (2025)

Biological target: human glucose‐regulated protein 78 (hGRP78), full-length (human, UniProt P11021 19-654)
Assay: SPR

Chain of human glucose‐regulated protein 78 (hGRP78), full-length (P11021 19-654): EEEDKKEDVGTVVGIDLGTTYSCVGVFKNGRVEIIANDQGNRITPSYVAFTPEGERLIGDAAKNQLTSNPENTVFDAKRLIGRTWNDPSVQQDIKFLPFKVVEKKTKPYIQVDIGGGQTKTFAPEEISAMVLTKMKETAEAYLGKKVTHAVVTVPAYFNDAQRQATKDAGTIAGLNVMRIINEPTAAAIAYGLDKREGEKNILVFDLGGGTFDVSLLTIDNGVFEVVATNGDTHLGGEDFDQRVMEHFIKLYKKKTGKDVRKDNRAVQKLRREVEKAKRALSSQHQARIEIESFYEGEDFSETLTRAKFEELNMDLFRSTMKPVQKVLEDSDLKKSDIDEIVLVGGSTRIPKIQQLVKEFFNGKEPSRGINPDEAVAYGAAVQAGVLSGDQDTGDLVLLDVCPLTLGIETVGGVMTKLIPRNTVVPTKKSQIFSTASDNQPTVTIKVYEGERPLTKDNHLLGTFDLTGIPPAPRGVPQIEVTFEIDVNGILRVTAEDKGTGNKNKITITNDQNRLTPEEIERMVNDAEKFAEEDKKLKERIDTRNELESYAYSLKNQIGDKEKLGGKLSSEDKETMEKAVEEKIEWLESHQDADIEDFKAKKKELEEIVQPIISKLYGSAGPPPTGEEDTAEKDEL

B1: Nb NBD1 (VHH)
VHH: AVQLVESGGGSVQAGGSLTLSCAASINTGNPALVGWYRQAPGKQREMVAMISISGNTNYAPSVKGRFTISRDNANKTIFLQMNSLTPEDTAVYYCKKLPFGSWGQGTQVTVSS
  koff: 0.000575 s⁻¹
